The labels stand for the following.
T1: murine Gαq (residues 7–359), biotinylated for bead binding (murine, UniProt P21279 7-359)
T1 sequence: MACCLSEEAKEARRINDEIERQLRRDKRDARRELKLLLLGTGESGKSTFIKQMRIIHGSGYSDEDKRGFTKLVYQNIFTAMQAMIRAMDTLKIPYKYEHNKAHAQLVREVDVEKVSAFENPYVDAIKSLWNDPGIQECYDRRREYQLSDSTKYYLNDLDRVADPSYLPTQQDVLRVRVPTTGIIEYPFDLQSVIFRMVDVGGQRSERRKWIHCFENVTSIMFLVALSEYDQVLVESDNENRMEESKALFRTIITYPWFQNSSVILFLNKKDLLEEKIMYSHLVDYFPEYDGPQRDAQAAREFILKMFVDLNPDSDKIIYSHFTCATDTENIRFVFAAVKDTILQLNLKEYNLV

B1: Gαq-ΔN (domain or fragment)
chain: RRELKLLLLGTGESGKSTFIKQMRIIHGSGYSDEDKRGFTKLVYQNIFTAMQAMIRAMDTLKIPYKYEHNKAHAQLVREVDVEKVSAFENPYVDAIKSLWNDPGIQECYDRRREYQLSDSTKYYLNDLDRVADPSYLPTQQDVLRVRVPTTGIIEYPFDLQSVIFRMVDVGGQRSERRKWIHCFENVTSIMFLVALSEYDQVLVESDNENRMEESKALFRTIITYPWFQNSSVILFLNKKDLLEEKIMYSHLVDYFPEYDGPQRDAQAAREFILKMFVDLNPDSDKIIYSHFTCATDTENIRFVFAAVKDTILQLNLKEYNLV
modifications: biotinylated (b-Gαq, in the FCPIA)
B2: human PLCβ3 (residues 10–1234) (enzyme)
chain: ALQLEPPTVVETLRRGSKFIKWDEETSSRNLVTLRVDPNGFFLYWTGPNMEVDTLDISSIRDTRTGRYARLPKDPKIREVLGFGGPDARLEEKLMTVVSGPDPVNTVFLNFMAVQDDTAKVWSEELFKLAMNILAQNASRNTFLRKAYTKLKLQVNQDGRIPVKNILKMFSADKKRVETALESCGLKFNRSESIRPDEFSLEIFERFLNKLCLRPDIDKILLEIGAKGKPYLTLEQLMDFINQKQRDPRLNEVLYPPLRPSQARLLIEKYEPNQQFLERDQMSMEGFSRYLGGEENGILPLEALDLSTDMTQPLSAYFINSSHNTYLTAGQLAGTSSVEMYRQALLWGCRCVELDVWKGRPPEEEPFITHGFTMTTEVPLRDVLEAIAETAFKTSPYPVILSFENHVDSAKQQAKMAEYCRSIFGDALLIEPLDKYPLAPGVPLPSPQDLMGRILVKNKKRHRPSAGGPDSAGRKRPLEQSNSALSESSAATEPSSPQLGSPSSDSCPGLSNGEEVGLEKPSLEPQKSLGDEGLNRGPYVLGPADREDEEEDEEEEEQTDPKKPTTDEGTASSEVNATEEMSTLVNYIEPVKFKSFEAARKRNKCFEMSSFVETKAMEQLTKSPMEFVEYNKQQLSRIYPKGTRVDSSNYMPQLFWNVGCQLVALNFQTLDVAMQLNAGVFEYNGRSGYLLKPEFMRRPDKSFDPFTEVIVDGIVANALRVKVISGQFLSDRKVGIYVEVDMFGLPVDTRRKYRTRTSQGNSFNPVWDEEPFDFPKVVLPTLASLRIAAFEEGGKFVGHRILPVSAIRSGYHYVCLRNEANQPLCLPALLIYTEASDYIPDDHQDYAEALINPIKHVSLMDQRARQLAALIGESEAQAGQETCQDTQSQQLGSQPSSNPTPSPLDASPRRPPGPTTSPASTSLSSPGQRDDLIASILSEVAPTPLDELRGHKALVKLRSRQERDLRELRKKHQRKAVTLTRRLLDGLAQAQAEGRCRLRPGALGGAADVEDTKEGEDEAKRYQEFQNRQVQSLLELREAQVDAEAQRRLEHLRQALQRLREVVLDANTTQFKRLKEMNEREKKELQKILDRKRHNSISEAKMRDKHKKEAELTEINRRHITESVNSIRRLEEAQKQRHDRLVAGQQQVLQQLAEEEPKLLAQLAQECQEQRARLPQEIRRSLLGEMPEGLGDGPLVACASNGHAPGSSGHLSGADSESQEENTQL
B3: TEV-cleaved murine Gαq (residues 7–359) (natural protein)
chain: T1 sequence
modifications: at least a fraction of the purified Gαq was palmitoylated (Cys9 and Cys10)

For assay [1], the target named is B2. Briefly: cell-based or functional assay.
Assay [2] addresses T1, murine Gαq (residues 7–359), …. Briefly: flow cytometry protein interaction assay.
Assay [3] deals with B2. The assay can be described thus: crystal structure.

A word on the Ki: it is a measure of affinity in units of concentration, obtained from inhibition or displacement.

Consider B1, for which, in assay [1], the “EC50 of Gαq-stimulated PIP2 hydrolysis ([3H]-IP3 release from liposomes)” value stood at 39 nM and the “Max specific activity of Gαq-stimulated PIP2 hydrolysis (liposomes)” value turned out to be 1600 nmol IP3/min/nmol PLCβ3.

B2 displayed a Ki in assay [2] of 220 nM. In other words, the sub-micromolar range.

For B3, the binding result in assay [3] is given as “binds”.
